Assay results taken from US20250320268A1 (SHATTUCK LABS, published 2025).
Values joined by “and” are separate entries in the source; they are usually repeats but may differ in a detail not shown here. Equal values may be shown once.

Columns and labels:
[1] = molecular target: recombinant hCD47-Fc (human) (UniProt Q08722); experiment: SIRPα blocking ELISA: plate-bound hCD47, labelled competitor recombinant hSIRPα
[2] = molecular target: recombinant human FcγR1A, histidine-tagged (human) (UniProt P12314); experiment: SPR (ProteOn XPR36); His-tagged FcγR1A immobilized, binder as analyte
Chain of recombinant human FcγR1A, histidine-tagged (human) (P12314 16-288): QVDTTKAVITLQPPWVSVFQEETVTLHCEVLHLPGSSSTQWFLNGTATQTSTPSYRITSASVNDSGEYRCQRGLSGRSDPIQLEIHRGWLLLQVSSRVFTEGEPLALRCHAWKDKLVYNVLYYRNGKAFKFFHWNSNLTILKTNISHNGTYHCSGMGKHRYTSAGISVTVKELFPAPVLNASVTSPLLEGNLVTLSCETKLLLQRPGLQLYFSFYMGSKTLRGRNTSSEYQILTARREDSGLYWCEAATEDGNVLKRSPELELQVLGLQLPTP

recombinant mouse CD47 = molecular target: T1, recombinant mouse CD47 (mouse, UniProt Q61735 19-140, limits assumed); experiment: dual ELISA: coat mCD47-Fc, detect mCD40-His, tertiary anti-his-HRP
T1 construct: also called mCD47-Fc
T1 sequence (looked up): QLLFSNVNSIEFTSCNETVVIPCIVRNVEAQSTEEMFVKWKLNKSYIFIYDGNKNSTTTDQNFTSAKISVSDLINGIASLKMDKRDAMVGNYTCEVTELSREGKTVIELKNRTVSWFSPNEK
Procedure: Plates were washed with TBS-T (Tris-buffered saline containing 0.1% Tween 20) and then detection antibody was added for 1 hour at room temperature in the dark. Detection antibodies included anti-hIgG-HRP, anti-mIgG-HRP, anti-hCD40L, anti-mCD40L, and then anti-Goat-HRP (all antibodies were obtained from Jackson ImmunoResearch Laboratories or R&D Systems). Plates were washed again and SureBlue TMB Microwell Peroxidase Substrate (KPL; purchased from VWR, catalog no. 95059-282) was added to each well and allowed to incubate at room temperature in the dark. To stop the reaction, 1N sulfuric acid was added to each well and absorbance at 450 nm was read immediately on a BioTek plate reader. Samples were run at a minimum in triplicate and at multiple dilutions.

[3] = molecular target: T2, recombinant human CD40, histidine-tagged (human, UniProt P25942 21-193); experiment: SPR (ProteOn XPR36); His-tagged CD40 immobilized, binder as analyte
T2 construct: Immobilized ligand in SPR and coating reagent in the single-sided ELISA; also called CD40 (AcroBiosystems); hCD40-His; not shown: histidine tag
T2 sequence (P25942 21-193 limits assumed): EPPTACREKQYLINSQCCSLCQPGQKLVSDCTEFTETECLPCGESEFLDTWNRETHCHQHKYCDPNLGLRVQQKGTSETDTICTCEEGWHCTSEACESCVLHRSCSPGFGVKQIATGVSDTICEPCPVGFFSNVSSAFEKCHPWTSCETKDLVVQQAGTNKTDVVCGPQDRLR

Chain of recombinant hCD47-Fc (human) (Q08722 19-139 limits assumed): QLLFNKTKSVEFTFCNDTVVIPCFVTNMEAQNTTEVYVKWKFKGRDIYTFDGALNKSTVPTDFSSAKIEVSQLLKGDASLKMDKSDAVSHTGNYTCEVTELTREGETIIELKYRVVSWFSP

Molecule: anti-human CD47 blocking antibody, clone CC2C6 (BioLegend)
- IC50 (read off the curve) [1]: 10 nM

Molecule: human IgG1 (positive control for Fcγ receptors and FcRn) (antibody)
- Kd [2]: 8.42 nM
- koff [2]: 0.000156 s⁻¹
- kon [2]: 18400 M⁻¹ s⁻¹

B1: murine SIRPα-Fc-CD40L chimeric protein surrogate (Fc fusion)
chain: KELKVTQPEKSVSVAAGDSTVLNCTLTSLLPVGPIRWYRGVGPSRLLIYSFAGEYVPRIRNVSDTTKRNNMDFSIRISNVTPADAGIYYCVKFQKGSSEPDTEIQSGGGTEVYVLAKPSPPEVSGPADRGIPDQKVNFTCKSHGFSPRNITLKWFKDGQELHPLETTVNPSGKNVSYNISSTVRVVLNSMDVNSKVICEVAHITLDRSPLRGIANLSNFIRVSPTVKVTQQSPTSMNQVNLTCRAERFYPEDLQLIWLENGNVSRNDTPKNLTKNTDGTYNYTSLFLVNSSAHREDVVFTCQVKHDQQPAITRNHTVLGFAHSSDQGSMQTFPDNNATHNWNVPRDCGCKPCICTVPEVSSVFIFPPKPKDVLTITLTPKVTCVVVDISKDDPEVQFSWFVDDVEVHTAQTQPREEQFNSTFRSVSELPIMHQDWLNGKEFKCRVNSAAFPAPIEKTISKTKGRPKAPQVYTIPPPKEQMAKDKVSLTCMITDFFPEDITVEWQWNGQPAENYKNTQPIMNTNGSYFVYSKLNVQKSNWEAGNTFTCSVLHEGLHNHHTEKSLSHSPGKHRRLDKVEEEVNLHEDFVFIKKLKRCNKGEGSLSLLNCEEMRRQFEDLVKDITLNKEEKKENSFEMQRGDEDPQIAAHVVSEANSNAASVLQWAKKGYYTMKSNLVMLENGKQLTVKREGLYYVYTQVTFCSNREPSSQRPFIVGLWLKPSSGSERILLKAANTHSSSQLCEQQSVHLGGVFELQAGASVFVNVTEASQVIHRVGFSSFGLLKL
notes: also called mSIRPα-Fc-CD40L; mouse SIRPα-Fc-CD40L
- EC50 (recombinant mouse CD47): 7.37 nM and 8.73 nM

B2: recombinant hCD40L-Fc (positive control analyte) (Fc fusion, human, UniProt P29965 116-261, looked up)
chain: GDQNPQIAAHVISEASSKTTSVLQWAEKGYYTMSNNLVTLENGKQLTVKRQGLYYIYAQVTFCSNREASSQAPFIASLCLKSPGRFERILLRAANTHSSAKPCGQQSIHLGGVFELQPGASVFVNVTDPSQVSHGTGFTSFGLLKL
notes: also called hCD40L-Fc (AcroBiosystems); not shown: Fc part of a bought fusion
- Kd [3]: 1.15 nM
- koff [3]: 0.000351 s⁻¹
- kon [3]: 304000 M⁻¹ s⁻¹
